Read-outs that look alike come from different tables or passages of the source.
How the values were obtained:
[1] = target: T1, avi-β1AR-E (turkey β1-adrenergic receptor, β1AR-E construct with N-terminal biotinylated avi-tag) (turkey, UniProt P07700 1-367, Δ3-32 | Δ244-271 | C358A^8.59 | C116L^3.27 | R68S^1.59 | F327A^7.37 | …, biotin on the avi-tag); experiment: BLI; isoprenaline
[2] = target: T2, avi-β1AR-W (turkey β1-adrenergic receptor, β1AR-MetΔ5 construct with N-terminal biotinylated avi-tag) (turkey, UniProt P07700 1-367, Δ3-32 | Δ244-271 | C358A^8.59 | C116L^3.27 | R68S^1.59 | E130W^3.41 | …, biotin on the avi-tag); experiment: BLI; isoprenaline
T2 sequence (P07700 other isoform, or with tags, fused parts or gaps with the stated changes): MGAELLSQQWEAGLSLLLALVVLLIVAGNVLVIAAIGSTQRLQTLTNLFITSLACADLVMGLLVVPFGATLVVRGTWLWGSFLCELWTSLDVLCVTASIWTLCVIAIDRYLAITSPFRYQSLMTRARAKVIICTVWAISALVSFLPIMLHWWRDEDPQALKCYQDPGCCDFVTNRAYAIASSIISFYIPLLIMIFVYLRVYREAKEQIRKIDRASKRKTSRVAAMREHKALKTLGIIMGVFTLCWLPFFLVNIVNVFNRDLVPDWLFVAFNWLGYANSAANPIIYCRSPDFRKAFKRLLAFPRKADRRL

[3] = target: T2, avi-β1AR-W (turkey β1-adrenergic …); experiment: BLI; isoprenaline; remark: listed apart in the source
[4] = target: T1, avi-β1AR-E (turkey β1-adrenergic …); experiment: BLI; isoprenaline; remark: listed apart in the source
[5] = target: T2, avi-β1AR-W (turkey β1-adrenergic …); experiment: BLI; isoprenaline; remark: listed apart in the source
[6] = target: T1, avi-β1AR-E (turkey β1-adrenergic …); experiment: BLI; salbutamol
[7] = target: T2, avi-β1AR-W (turkey β1-adrenergic …); experiment: BLI; salbutamol
[8] = target: T1, avi-β1AR-E (turkey β1-adrenergic …); experiment: BLI; xamoterol
[9] = target: T2, avi-β1AR-W (turkey β1-adrenergic …); experiment: BLI; xamoterol
[10] = target: T2, avi-β1AR-W (turkey β1-adrenergic …); experiment: BLI; isoprenaline; remark: listed apart in the source

T1 sequence (P07700 other isoform, or with tags, fused parts or gaps with the stated changes): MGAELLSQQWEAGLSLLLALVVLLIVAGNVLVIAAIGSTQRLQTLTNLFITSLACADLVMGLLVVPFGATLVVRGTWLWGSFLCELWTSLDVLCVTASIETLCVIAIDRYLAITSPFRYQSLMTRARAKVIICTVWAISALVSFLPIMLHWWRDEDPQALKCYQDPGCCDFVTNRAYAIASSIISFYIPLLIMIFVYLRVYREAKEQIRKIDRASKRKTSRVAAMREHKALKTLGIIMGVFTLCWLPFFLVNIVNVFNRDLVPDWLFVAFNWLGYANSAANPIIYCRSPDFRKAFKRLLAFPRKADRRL

Binder | koff [1] | koff [2] | Kd [3] | koff [4] | koff [5] | Kd [6] | Kd [7] | Kd [8] | Kd [9] | Kd [10]
mini-Gs/q R70 (domain or fragment) IEKQLQKDKQVYRATHRLLLLGADNSGKSTIVKQMRIYHTSGIFETKFQVDKVNFHMFDVGGQRDERRKWIQCFNDVTAIIFVVDSSDYNRLQEALNDFKSIWNNRWLRTISVILFLNKQDLLAEKVLAGKSKIEDYFPEFARYTTPEDATPEPGEDPRVTRAKYFIRDEFLRISTASGDGRHYCYPHFTCAVDTENARRIFNDCKDIILQMNLREYNLV | 0.00343 s⁻¹ | 0.0067 s⁻¹ | 534 nM |  |  |  |  |  |  | 
mini-Gs 393 with C96A (domain or fragment) GIEKQLQKDKQVYRATHRLLLLGADNSGKSTIVKQMRIYHGGSGGSGGTSGIFETKFQVDKVNFHMFDVGGQRDERRKWIQAFNDVTAIIFVVDSSDYNRLQEALNDFKSIWNNRWLRTISVILFLNKQDLLAEKVLAGKSKIEDYFPEFARYTTPEDATPEPGEDPRVTRAKYFIRDEFLRISTASGDGRHYCYPHFTCAVDTENARRIFNDCRDIIQRMHLRQYELL |  |  |  | 0.00689 s⁻¹ | 0.00625 s⁻¹ | 962 nM | 1460 nM | 2360 nM | 2970 nM | 161 nM
mini-Go1 R12 (domain or fragment) IEKNLKEDGISAAKDVKLLLLGADNSGKSTIVKQMKIIHTTGIVETHFTFKNLHFRLFDVGGQRSERKKWIHCFEDVTAIIFCVDLSDYNRMHESLMLFDSICNNKFFIDTSIILFLNKKDLFGEKIKKSPLTICFPEYTGPNTYEDAAAYIQAQFESKNRSPNKEIYCHMTCATDTNNAQVIFDAVTDIIIANNLRGCGLY | 0.00393 s⁻¹ | 0.00941 s⁻¹ | 7410 nM |  |  |  |  |  |  | 
mini-Gs/i R43 with C96A (domain or fragment) IEKQLQKDKQVYRATHRLLLLGADNSGKSTIVKQMRIYHTSGIFETKFQVDKVNFHMFDVGGQRDERRKWIQAFNDVTAIIFVVDSSDYNRLQEALNDFKSIWNNRWLRTISVILFLNKQDLLAEKVLAGKSKIEDYFPEFARYTTPEDATPEPGEDPRVTRAKYFIRDEFLRISTASGDGRHYCYPHFTCAVDTENARRIFNDVTDIIIKMNLRDCGLF | 0.00397 s⁻¹ | 0.00623 s⁻¹ | 2530 nM |  |  |  |  |  |  | 

Source: paper PMC10864275 (2024)
